Measured values as given in doi:10.1101/2023.05.08.539884 (bioRxiv, 2023).
Where “and” joins values, the source holds several entries; their conditions need not be identical. Identical values can stand only once.

Molecular target: UBE2A (UniProt P49459 1-152)
Test: ITC

B1: UBR4_(4730-5183) (domain or fragment)
chain: AIQHPGTQVLIGTDSIPNLHKLEQVSSDEGIGTLAENLLEALREHPDVNKKIDAARRETRAEKKRMAMAMRQKALGTLGMTTNEKGQVVTKTALLKQMEELIEEPGLTCCICREGYKFQPTKVLGIYTFTKRVALEEMENKPRKQQGYSTVSHFNIVHYDCHLAAVRLARGREEWESAALQNANTKCNGLLPVWGPHVPESAFATCLARHNTYLQECTGQREPTYQLNIHDIKLLFLRFAMEQSFSADTGGGGRESNIHLIPYIIHTVLYVLNTTRATSREEKNLQGFLEQPKEKWVESAFEVDGPYYFTVLALHILPPEQWRATRVEILRRLLVTSQARAVAPGGATRLTDKAVKDYSAYRSSLLFWALVDLIYNMFKKVPTSNTEGGWSCSLAEYIRHNDMPIYEAADKALKTFQEEFMPVETFSEFLDVAGLLSEITDPESFLKDLLNSVP
For B1, the Kd was 2800 nM and 2580 nM.
